Laboratory results: patent US20180021429A1 (PHARMA FOODS INTERNATIONAL, published 2018)
Residue numbers refer to the chain shown, from its start.

T1: human FSTL1 (construct not stated) (human, UniProt Q12841 21-308)
T1 construct: also called human FSTL1 antigen; FSTL1 (R&D Systems, Inc. Cat#1694-FN-050)
T1 sequence: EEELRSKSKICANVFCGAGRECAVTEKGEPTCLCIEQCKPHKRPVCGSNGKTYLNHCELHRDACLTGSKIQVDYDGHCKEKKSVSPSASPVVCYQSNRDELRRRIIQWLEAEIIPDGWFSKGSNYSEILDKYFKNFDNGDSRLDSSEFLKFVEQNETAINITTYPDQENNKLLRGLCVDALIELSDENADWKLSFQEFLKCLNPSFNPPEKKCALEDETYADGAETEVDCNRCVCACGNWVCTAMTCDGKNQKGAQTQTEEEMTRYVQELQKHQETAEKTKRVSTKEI

T2: His-tagged mouse FSTL1 (amino acid sequence of mouse FSTL1 used in Examples, SEQ ID NO: 72) (mouse, UniProt Q62356 19-306)
T2 sequence: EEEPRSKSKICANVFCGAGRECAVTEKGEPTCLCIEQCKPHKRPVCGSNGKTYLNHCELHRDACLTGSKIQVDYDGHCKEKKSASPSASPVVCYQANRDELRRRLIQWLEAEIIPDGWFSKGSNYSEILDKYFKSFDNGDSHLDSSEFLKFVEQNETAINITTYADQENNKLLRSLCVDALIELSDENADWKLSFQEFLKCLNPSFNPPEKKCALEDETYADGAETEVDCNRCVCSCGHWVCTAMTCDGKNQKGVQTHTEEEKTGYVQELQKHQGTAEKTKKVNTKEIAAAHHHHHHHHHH

B1: humanized #6-55 antibody H(1)-L(1) (IgG1 type) (antibody, V domains shown)
VH: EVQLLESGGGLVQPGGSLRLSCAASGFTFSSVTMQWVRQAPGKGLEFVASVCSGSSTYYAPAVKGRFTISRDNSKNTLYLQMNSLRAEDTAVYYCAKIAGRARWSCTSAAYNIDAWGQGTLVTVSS
VL: SYELTQPPSVSVSPGQTARITCSGGGNNYGWYQQKPGQAPVTVIYYNDNRPSGIPERFSGSNSGSTTTLTISGVQAEDEADYYCGSWDSNTDSGIFGGGTKLTVLG
notes: Human IgG1 constant region; expressed in HEK293 with a chicken antibody leader; also called h#6-55 H(1)-L(1)
B2: humanized #6-55 antibody H(1)-L(2) (IgG1 type) (antibody, V domains shown)
VH: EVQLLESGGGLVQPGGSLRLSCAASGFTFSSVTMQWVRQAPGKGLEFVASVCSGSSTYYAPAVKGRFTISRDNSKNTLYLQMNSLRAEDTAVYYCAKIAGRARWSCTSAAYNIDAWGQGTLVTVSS
VL: B1 VL with N62T
notes: Human IgG1 constant region; expressed in HEK293; also called h#6-55 H(1)-L(2)
B3: humanized #6-55 antibody H(2)-L(2) (IgG1 type) (antibody, V domains shown)
VH: EVQLLESGGGLVQPGGSLRLSCAASGFTFSSVTMQWVRQAPGKGLEFVSSVCSGSSTYYAPAVKGRFTISRDNSKNTVYLQMNSLRAEDTAVYYCAKIAGRARWSCTSAAYNIDAWGQGTLVTVSS
VL: B1 VL with N62T
notes: Human IgG1 constant region; expressed in HEK293; also called h#6-55 H(2)-L(2)
B4: humanized #6-55 antibody H(2)-L(3) (IgG1 type) (antibody, V domains shown)
VH: B3 VH
VL: B1 VL with S65N, T67A
notes: Human IgG1 constant region; expressed in HEK293; also called h#6-55 H(2)-L(3)
B5: humanized #6-55 antibody H(3)-L(3) (IgG1 type) (antibody, V domains shown)
VH: B3 VH with S49A, F67V
VL: B1 VL with S65N, T67A
notes: Human IgG1 constant region; expressed in HEK293; also called h#6-55 H(3)-L(3)
B6: humanized #6-55 antibody H(1)-L(3) (IgG1 type) (antibody, V domains shown)
VH: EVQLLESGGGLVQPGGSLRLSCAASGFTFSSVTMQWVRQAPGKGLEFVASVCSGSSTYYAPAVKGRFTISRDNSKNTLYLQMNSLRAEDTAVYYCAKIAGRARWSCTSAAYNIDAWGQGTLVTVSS
VL: B1 VL with S65N, T67A
notes: Human IgG1 constant region; expressed in HEK293; also called h#6-55 H(1)-L(3)
B7: humanized #6-55 antibody H(2)-L(1) (IgG1 type) (antibody)
heavy: not shown
light: SYELTQPPSVSVSPGQTARITCSGGGNNYGWYQQKPGQAPVTVIYYNDNRPSGIPERFSGSNSGSTTTLTISGVQAEDEADYYCGSWDSNTDSGIFGGGTKLTVLGTVAAPSVFIFPPSDEQLKSGTASVVCLLNNFYPREAKVQWKVDNALQSGNSQESVTEQDSKDSTYSLSSTLTLSKADYEKHKVYACEVTHQGLSSPVTKSFNRGEC
notes: Human IgG1 constant region; expressed in HEK293; lead antibody; also called h#6-55 H(2)-L(1); humanized #6-55 H chain (2)+L chain (1)
B8: anti-FSTL1 antibody clone #8-4 (chicken-mouse chimeric antibody) (antibody, mouse IgG1, kappa, V domains shown)
VH: AVTLDESGGGLQTPGGGLSLVCKGSGFTLSSFNMFWVRQAPGKGLEWVAGVGKDGGTAYGAAVDGRATISRDSGQSTVRLQLNNLRAEDTGTYFCAKAAGGCSYSWCGAYVGDLDAWGHGTEVIVSS
VL: ASSQPSSVSANPGETVKITCSGGSGYYYGWYQQKSPGSAPVTVIYNNDNKPSDIPSRFSGSKSGSTGTLTITGVQVEDEAVYFCGGYDNSGTGIFGAGTTLTVLG
B9: anti-FSTL1 antibody clone #6-55 (chicken-mouse chimeric antibody) (antibody, mouse IgG1, kappa, V domains shown)
VH: AVTLDESGGGLQTPGGALSLVCKGSGFTFTSVTMQWVRQAPGKGLEWVASVCSGSSTYYAPAVKGRATISRDNGQSTVRLQLSNLRPEDTGTYYCAKIAGRARWSCTSAAYNIDAWGHGTEVIVSS
VL: ASTQPSSVSAIPGETVKITCSGGGNNYGWYQQRSPGSAPVTVIYYNDNRPSNIPSRFSGSTSGSTSTLTITGVQADDEAIYYCGSWDSNTDSGIFGAGTTLTVLG
notes: also called Anti-FSTL1 mAb (#6-55)
B10: anti-FSTL1 antibody clone #5-8 (chicken-mouse chimeric antibody) (antibody, mouse IgG1, kappa, V domains shown)
VH: AVTLDESGGGLQTPGGGLSLVCKGSGFTFSSFNMFWVRQAPGKGLEWVAGIGKDGVPKYGTAVDGRATISKDNGQSTMRLQLNNLRAEDTGTYFCAKAAGGCSYDWCGIYTGDIDTWGHGTEVIVSS
VL: ASTQPSSVSANPGEAVKITCSGGSGSYYGWYQQKSPGSAPVTVIYNNNQRPSDIPSRFSGSKSGSTATLTITGVQAEDEAVYFCGGYDSSTGHGGIFGAGTTLTVLG
B11: anti-FSTL1 antibody clone #8-1 (chicken-mouse chimeric antibody) (antibody, mouse IgG1, kappa, V domains shown)
VH: B10 VH with G17A, T61A, T111A
VL: B10 VL with T91S
B12: anti-FSTL1 antibody clone #10 (chicken-mouse chimeric antibody) (antibody, mouse IgG1, kappa, V domains shown)
VH: AVTLDESGGGLQTPGGALSLVCKASGFFFFRIYDMGWVRQAPGKGLEWVAGIDDYGRYTGYGSAVKGRATISRDNGQSTVRLQLNNLRAEDTGTYYCARGAGTGCNSAGCGAYAGSIDAWGHGTEVIVSS
VL: ASTQPSSVSANPGETVKLTCSGGGSRYGWYQQKSPGSAPVTVIYYNDKRPSDIPSRFSGSKSGSTATLTITGVQAEDEAVYFCGGYDGSRDAGIFGAGTTLTVLG

target: T1, human FSTL1 (construct not stated); assay: SPR (Biacore T-200), antibody on Human Antibody Capture Kit, human FSTL1 0 to 20 µg/ml
Procedure: (§1) Nine IgG1-type humanized antibodies of #6-55 were immobilized onto Sensor Chip CM5 (GE Healthcare Japan Corp., BR-1005-30) using Human Antibody Capture Kit (GE Healthcare Japan Corp., BR-1008-38), and their affinity for human FSTL1 was calculated using Biacore T-200 (GE Healthcare Japan Corp.). […] Among the 9 IgG1-type humanized antibodies of #6-55, a clone composed of a combination “H(2)-L(1)” having a […] KD value was selected as a lead antibody.

| Binder | Kd [nM] |
| --- | --- |
| B1 | 35.2 |
| B2 | 25 |
| B3 | 11.3 |
| B4 | 45 |
| B5 | 24.9 |
| B6 | 26.8 |
| B7 | 60.5 |

target: T1, human FSTL1 (construct not stated); assay: SPR (Biacore T-200), captured antibody, human FSTL1 10 µg/ml; as to Dissociation amount (RU): time not given here
Procedure: (§2) The mouse chimeric antibodies were immobilized onto Sensor Chip CM5 (GE Healthcare Japan Corp., BR-1005-30) using Mouse Antibody Capture Kit (GE Healthcare Japan Corp., BR-1008-38), and their affinity for human FSTL1 was calculated using Biacore T-200 (GE Healthcare Japan Corp.).

| Binder | Binding amount (RU) | Dissociation amount (RU) |
| --- | --- | --- |
| B8 | 11.6 | 6.2 |
| B9 | 11 | 1.5 |
| B10 | 6.7 | 3.4 |
| B11 | 11.1 | 12.3 |
| B12 | 11.7 | 6 |

target: T2, His-tagged mouse FSTL1 (amino acid …); assay: ELISA, mouse FSTL1 coated (FIG. 3B)

| Binder | binding result |
| --- | --- |
| B8 | no binding (tested: antibody diluted from 100 ng/ml) |
| B9 | binds |
| B10 | no binding (tested: antibody diluted from 100 ng/ml) |
| B11 | binds |
| B12 | binds |

target: T1, human FSTL1 (construct not stated); assay: SPR (Biacore T-200), antibody on Human Antibody Capture Kit, human FSTL1 0 to 20 µg/ml; remark: another data set of the same source
Procedure: as §1

| Binder | Kd [nM] |
| --- | --- |
| B1 | 35.2 |
| B2 | 25 |
| B3 | 11.3 |
| B4 | 45 |
| B5 | 24.9 |
| B6 | 26.8 |
| B7 | 60.5 |

target: T1, human FSTL1 (construct not stated); assay: SPR (Biacore T-200), captured antibody, human FSTL1 10 µg/ml; remark: another data set of the same source; as to Dissociation amount (RU): time not given here
Procedure: as §2
(§3) First, the exhaustive activity comparison of the obtained antibodies was conducted with the human FSTL1 concentration fixed to 10 μg/ml (Table 33-1, FIG. 28).

| Binder | Binding amount (RU) | Dissociation amount (RU) |
| --- | --- | --- |
| B8 | 11.6 | 6.2 |
| B9 | 11 | 1.5 |
| B10 | 6.7 | 3.4 |
| B11 | 11.1 | 12.3 |
| B12 | 11.7 | 6 |

target: T1, human FSTL1 (construct not stated); assay: SPR (Biacore T-200), antibody on Human Antibody Capture Kit, human FSTL1 0 to 20 µg/ml; remark: another data set of the same source
Procedure: as §1

| Binder | Kd [nM] |
| --- | --- |
| B1 | 35.2 |
| B2 | 25 |
| B3 | 11.3 |
| B4 | 45 |
| B5 | 24.9 |
| B6 | 26.8 |
| B7 | 60.5 |

target: T1, human FSTL1 (construct not stated); assay: SPR (Biacore T-200), captured antibody, human FSTL1 10 µg/ml; remark: another data set of the same source; as to Dissociation amount (RU): time not given here
Procedure: as §2, §3

| Binder | Binding amount (RU) | Dissociation amount (RU) |
| --- | --- | --- |
| B8 | 11.6 | 6.2 |
| B9 | 11 | 1.5 |
| B10 | 6.7 | 3.4 |
| B11 | 11.1 | 12.3 |
| B12 | 11.7 | 6 |

target: T1, human FSTL1 (construct not stated); assay: SPR (Biacore T-200), antibody on Human Antibody Capture Kit, human FSTL1 0 to 20 µg/ml; remark: another data set of the same source
Procedure: as §1

| Binder | Kd [nM] |
| --- | --- |
| B1 | 35.2 |
| B2 | 25 |
| B3 | 11.3 |
| B4 | 45 |
| B5 | 24.9 |
| B6 | 26.8 |
| B7 | 60.5 |

target: T1, human FSTL1 (construct not stated); assay: SPR (Biacore T-200), captured antibody, human FSTL1 10 µg/ml; remark: another data set of the same source; as to Dissociation amount (RU): time not given here
Procedure: as §2, §3

| Binder | Binding amount (RU) | Dissociation amount (RU) |
| --- | --- | --- |
| B8 | 11.6 | 6.2 |
| B9 | 11 | 1.5 |
| B10 | 6.7 | 3.4 |
| B11 | 11.1 | 12.3 |
| B12 | 11.7 | 6 |
